{
  "source": "paper PMC3633241",
  "about": "(The Febs Journal, 2013)",
  "molecular_target": "the molecule itself",
  "experiment": "SDS/PAGE with western blotting",
  "data": [
    {"protein": "Pho89–Myc-His6 (full-length recombinant Saccharomyces cerevisiae high-affinity phosphate transporter Pho89 fusion protein) (natural protein, S. cerevisiae, UniProt P38361 1-574, looked up) MALHQFDYIFAIAMLFAFLDAFNIGANDVANSFASSISSRSLKYWQAMVLAGLCEFLGAVLAGARVSGTIKNNIIDSSIFTNDPAVLMLTMTSALIGSSCWLTFATAIGMPVSTTHSIVGGTIGAGIAAGGANGVVWGWSGVSQIIASWFIAPILAGAIAAIVFSISRFSVLEVKSLERSIKNALLLVGVLVFATFSILTMLIVWKGSPNLHLDDLSETETAVSIVLTGAIASIVYFIFFYPFYRRKVLDQDWTLKLIDIFRGPSFYFKSTDDIPPMPEGHQLTIDYYEGRRNLGTTVSVEDEENKAASNSNDSVKNKEDIQEVDLVRTETEPETKLSTKQYWWSLLKQGPKKWPLLFWLVISHGWTQDVIHAQVNDRDMLSGDLKGMYERSKFYDNRVEYIYSVLQAITAATMSFAHGANDVANATGPLSAVYVIWKTNTIGAKSEVPVWVLAYGGVALVIGCWTYGYNIIKNLGNKMILQSPSRGFSIELAVAITTVMATQLGIPTSTTQIAVGGIVAVGLCNKDLKSVNWRMVAWCYSGWFLTLPIAGLIAGIINGIILNAPRFGVEYQMT", "values": [
      {"measurement": "binding result", "value": "binds"}
    ]}
  ]
}
